In paper PMC9482650, “Quantitative fragmentomics allow affinity mapping of interactomes” (Nature Communications, 2022):

T1: APBA2_1, Q99767
T1 sequence (Q99767 563-664, limits assumed, looked up): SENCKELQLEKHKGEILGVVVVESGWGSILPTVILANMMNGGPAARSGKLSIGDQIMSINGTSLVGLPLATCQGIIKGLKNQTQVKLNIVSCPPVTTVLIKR

T2: ARHGEF11, O15085
T2 sequence (O15085 42-136, limits assumed, looked up): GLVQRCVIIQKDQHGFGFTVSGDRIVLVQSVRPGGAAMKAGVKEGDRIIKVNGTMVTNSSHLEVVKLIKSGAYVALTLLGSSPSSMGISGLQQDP

T3: GRIP1_2, Q9Y3R0
T3 sequence (Q9Y3R0 145-248, limits assumed, looked up): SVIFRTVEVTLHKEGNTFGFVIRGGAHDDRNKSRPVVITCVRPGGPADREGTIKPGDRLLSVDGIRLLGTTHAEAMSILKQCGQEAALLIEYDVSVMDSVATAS

T4: GRIP1_3, Q9Y3R0
T4 sequence (Q9Y3R0 247-346, limits assumed, looked up): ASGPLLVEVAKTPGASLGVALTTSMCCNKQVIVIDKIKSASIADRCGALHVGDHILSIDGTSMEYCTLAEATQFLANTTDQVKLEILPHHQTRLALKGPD

T5: LIN7C, Q9NUP9
T5 sequence (Q9NUP9 88-185, limits assumed, looked up): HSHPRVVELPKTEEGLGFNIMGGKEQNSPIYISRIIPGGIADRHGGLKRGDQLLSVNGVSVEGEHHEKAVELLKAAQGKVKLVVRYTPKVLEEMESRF

T6: NHERF3_1, Q5T2W1
T6 sequence (Q5T2W1 4-100, limits assumed, looked up): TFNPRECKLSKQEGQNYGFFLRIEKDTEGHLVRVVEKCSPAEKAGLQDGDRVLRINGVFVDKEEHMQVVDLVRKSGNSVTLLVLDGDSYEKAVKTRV

T7: NHERF3_3, Q5T2W1
T7 sequence (Q5T2W1 238-333, limits assumed, looked up): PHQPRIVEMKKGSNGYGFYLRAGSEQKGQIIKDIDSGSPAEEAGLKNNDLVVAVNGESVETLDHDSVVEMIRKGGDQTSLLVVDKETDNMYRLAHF

T8: RADIL, Q96JH8
T8 sequence (Q96JH8 971-1071, limits assumed, looked up): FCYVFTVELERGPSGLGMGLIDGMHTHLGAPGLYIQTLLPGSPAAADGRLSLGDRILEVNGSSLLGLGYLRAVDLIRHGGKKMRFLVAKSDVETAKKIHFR

T9: RHPN1, Q8TCX5
T9 sequence (Q8TCX5 508-602, limits assumed, looked up): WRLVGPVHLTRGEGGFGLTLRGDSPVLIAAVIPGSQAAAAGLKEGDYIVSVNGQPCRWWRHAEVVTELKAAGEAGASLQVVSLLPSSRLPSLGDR

T10: SNTG1, Q9NSN8
T10 sequence (Q9NSN8 52-150, limits assumed, looked up): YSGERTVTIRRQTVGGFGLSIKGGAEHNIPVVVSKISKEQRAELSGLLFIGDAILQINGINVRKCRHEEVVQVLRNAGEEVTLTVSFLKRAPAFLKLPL

T11: SYNJ2BP, P57105
T11 sequence (P57105 8-110, limits assumed, looked up): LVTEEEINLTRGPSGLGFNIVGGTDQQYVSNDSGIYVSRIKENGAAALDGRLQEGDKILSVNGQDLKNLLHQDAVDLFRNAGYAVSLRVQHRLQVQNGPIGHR

T12: TJP3_3, O95049
T12 sequence (O95049 375-456, limits assumed, looked up): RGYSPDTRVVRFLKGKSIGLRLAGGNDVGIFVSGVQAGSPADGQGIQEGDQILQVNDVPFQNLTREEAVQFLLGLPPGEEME


Legend:
Assay in all cases: holdup assay
Set-up in all cases: key: below the threshold = too weak to quantify, mostly under pKd 3.1 to 4
Conditions in all cases: plain residues with an end cap or a label only (N-terminal biotin on a linker: ado-ado)
APBA2_1, Q99767 = molecular target: T1, APBA2_1, Q99767
ARHGEF11, O15085 = molecular target: T2, ARHGEF11, O15085
ARHGEF12, Q9NZN5-2 = molecular target: ARHGEF12, Q9NZN5-2
Sequence of ARHGEF12, Q9NZN5-2 (Q9NZN5 other isoform, or with tags, fused parts or gaps): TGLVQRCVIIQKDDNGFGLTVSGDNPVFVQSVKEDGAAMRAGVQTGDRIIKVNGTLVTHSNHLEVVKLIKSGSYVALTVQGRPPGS

CASK, O14936 = molecular target: CASK, O14936
Sequence of CASK, O14936 (O14936 487-570): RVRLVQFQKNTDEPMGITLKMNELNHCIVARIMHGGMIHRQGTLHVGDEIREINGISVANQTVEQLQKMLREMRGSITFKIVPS

DLG2_2, Q15700 = molecular target: DLG2_2, Q15700
DLG2_3, Q15700 = molecular target: DLG2_3, Q15700
GRID2IP_1, A4D2P6 = molecular target: GRID2IP_1, A4D2P6
Sequence of GRID2IP_1, A4D2P6 (A4D2P6 1-87): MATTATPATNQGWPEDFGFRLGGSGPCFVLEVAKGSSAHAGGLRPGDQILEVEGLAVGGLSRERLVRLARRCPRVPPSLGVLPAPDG

GRIP1_2, Q9Y3R0 = molecular target: T3, GRIP1_2, Q9Y3R0
GRIP1_3, Q9Y3R0 = molecular target: T4, GRIP1_3, Q9Y3R0
GRIP2_6, Q9C0E4 = molecular target: GRIP2_6, Q9C0E4
Sequence of GRIP2_6, Q9C0E4 (Q9C0E4 648-740): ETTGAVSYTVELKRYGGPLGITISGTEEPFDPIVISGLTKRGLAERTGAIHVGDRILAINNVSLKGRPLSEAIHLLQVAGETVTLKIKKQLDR

HTRA1, Q92743 = molecular target: HTRA1, Q92743
Sequence of HTRA1, Q92743 (Q92743 360-477): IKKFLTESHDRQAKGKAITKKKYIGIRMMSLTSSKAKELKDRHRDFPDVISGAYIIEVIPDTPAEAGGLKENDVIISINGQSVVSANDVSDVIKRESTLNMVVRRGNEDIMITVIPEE

IL16_4, Q14005 = molecular target: IL16_4, Q14005
Sequence of IL16_4, Q14005 (Q14005 1229-1329): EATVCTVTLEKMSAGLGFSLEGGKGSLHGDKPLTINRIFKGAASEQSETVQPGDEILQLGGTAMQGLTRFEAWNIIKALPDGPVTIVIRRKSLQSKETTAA

Inadl_10, Q8NI35 = molecular target: Inadl_10, Q8NI35
Sequence of Inadl_10, Q8NI35 (Q8NI35 1673-1763): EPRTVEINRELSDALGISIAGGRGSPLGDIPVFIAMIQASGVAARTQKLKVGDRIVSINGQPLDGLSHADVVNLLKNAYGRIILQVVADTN

Inadl_2, Q8NI35 = molecular target: Inadl_2, Q8NI35
Sequence of Inadl_2, Q8NI35 (Q8NI35 238-335): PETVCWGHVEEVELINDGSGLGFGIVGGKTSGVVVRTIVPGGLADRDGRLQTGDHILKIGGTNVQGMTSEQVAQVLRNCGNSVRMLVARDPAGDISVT

LIN7C, Q9NUP9 = molecular target: T5, LIN7C, Q9NUP9
LNX1_2, Q8TBB1 = molecular target: LNX1_2, Q8TBB1
Sequence of LNX1_2, Q8TBB1 (Q8TBB1 371-470): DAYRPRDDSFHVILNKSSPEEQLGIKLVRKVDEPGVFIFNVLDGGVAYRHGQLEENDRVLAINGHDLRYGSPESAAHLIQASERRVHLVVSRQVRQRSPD

MAGI1_1, Q96QZ7 = molecular target: MAGI1_1, Q96QZ7
Sequence of MAGI1_1, Q96QZ7 (Q96QZ7 1-106): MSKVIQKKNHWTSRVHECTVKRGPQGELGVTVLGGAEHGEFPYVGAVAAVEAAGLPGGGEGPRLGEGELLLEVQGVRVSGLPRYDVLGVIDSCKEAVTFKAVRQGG

NHERF3_1, Q5T2W1 = molecular target: T6, NHERF3_1, Q5T2W1
NHERF3_3, Q5T2W1 = molecular target: T7, NHERF3_3, Q5T2W1
PDZRN4_1, Q6ZMN7 = molecular target: PDZRN4_1, Q6ZMN7
Sequence of PDZRN4_1, Q6ZMN7 (Q6ZMN7 213-318): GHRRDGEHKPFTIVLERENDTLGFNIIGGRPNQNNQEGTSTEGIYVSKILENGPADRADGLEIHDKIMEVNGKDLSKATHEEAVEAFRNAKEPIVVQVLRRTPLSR

RADIL, Q96JH8 = molecular target: T8, RADIL, Q96JH8
RHPN1, Q8TCX5 = molecular target: T9, RHPN1, Q8TCX5
SNTG1, Q9NSN8 = molecular target: T10, SNTG1, Q9NSN8
SYNJ2BP, P57105 = molecular target: T11, SYNJ2BP, P57105
TJP1_2, Q07157 = molecular target: TJP1_2, Q07157
Sequence of TJP1_2, Q07157 (Q07157 181-274): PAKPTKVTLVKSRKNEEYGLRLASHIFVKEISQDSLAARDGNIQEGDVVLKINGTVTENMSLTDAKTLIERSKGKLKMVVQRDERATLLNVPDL

TJP3_3, O95049 = molecular target: T12, TJP3_3, O95049

| Binder | pKd (APBA2_1, Q99767) | pKd (ARHGEF11, O15085) | pKd (ARHGEF12, Q9NZN5-2) | pKd (CASK, O14936) | pKd (DLG2_2, Q15700) | pKd (DLG2_3, Q15700) | pKd (GRID2IP_1, A4D2P6) | pKd (GRIP1_2, Q9Y3R0) | pKd (GRIP1_3, Q9Y3R0) | pKd (GRIP2_6, Q9C0E4) | pKd (HTRA1, Q92743) | pKd (IL16_4, Q14005) | pKd (Inadl_10, Q8NI35) | pKd (Inadl_2, Q8NI35) | pKd (LIN7C, Q9NUP9) | pKd (LNX1_2, Q8TBB1) | pKd (MAGI1_1, Q96QZ7) | pKd (NHERF3_1, Q5T2W1) | pKd (NHERF3_3, Q5T2W1) | pKd (PDZRN4_1, Q6ZMN7) | other results |
| --- | --- | --- | --- | --- | --- | --- | --- | --- | --- | --- | --- | --- | --- | --- | --- | --- | --- | --- | --- | --- | --- |
| PAPGQHTTQI [STK16, O75716] | below the threshold | below the threshold | 4.38 | below the threshold | 3.79 | 3.67 | below the threshold | below the threshold | below the threshold | below the threshold | below the threshold | below the threshold | below the threshold | below the threshold | 3.98 | below the threshold | below the threshold | 4.26 | below the threshold | below the threshold | pKd (RADIL, Q96JH8): 3.75; pKd (RHPN1, Q8TCX5): 4.35; pKd (SNTG1, Q9NSN8): below the threshold; pKd (SYNJ2BP, P57105): 3.51; pKd (TJP1_2, Q07157): below the threshold; pKd (TJP3_3, O95049): below the threshold |
| QFTLRHWLKV [SLC6A3, Q01959] | 3.48 | below the threshold | below the threshold | below the threshold | below the threshold | below the threshold | below the threshold | below the threshold | below the threshold | 3.9 | 4.45 | below the threshold | below the threshold | below the threshold | below the threshold | 3.84 | below the threshold | 3.77 | below the threshold | below the threshold | pKd (RADIL, Q96JH8): 4.42; pKd (RHPN1, Q8TCX5): below the threshold; pKd (SNTG1, Q9NSN8): below the threshold; pKd (SYNJ2BP, P57105): below the threshold; pKd (TJP1_2, Q07157): 4.19; pKd (TJP3_3, O95049): below the threshold |
| DSATVRTYSC [PPFIA1, Q13136] | below the threshold | 3.66 | below the threshold | below the threshold | below the threshold | 3.73 | below the threshold | below the threshold | below the threshold | 5.71 | 4.27 | 3.54 | below the threshold | below the threshold | below the threshold | 4.83 | below the threshold | 3.77 | below the threshold | below the threshold | pKd (RADIL, Q96JH8): below the threshold; pKd (RHPN1, Q8TCX5): below the threshold; pKd (SNTG1, Q9NSN8): below the threshold; pKd (SYNJ2BP, P57105): below the threshold; pKd (TJP1_2, Q07157): 3.48; pKd (TJP3_3, O95049): below the threshold |
| PASAKGPLGV [CLDN19, Q8N6F1] | below the threshold | below the threshold | below the threshold | below the threshold | below the threshold | below the threshold | below the threshold | below the threshold | below the threshold | below the threshold | below the threshold | 3.55 | below the threshold | below the threshold | below the threshold | below the threshold | below the threshold | below the threshold | below the threshold | below the threshold | pKd (RADIL, Q96JH8): below the threshold; pKd (RHPN1, Q8TCX5): below the threshold; pKd (SNTG1, Q9NSN8): below the threshold; pKd (SYNJ2BP, P57105): below the threshold; pKd (TJP1_2, Q07157): below the threshold; pKd (TJP3_3, O95049): below the threshold |
